In paper PMC4715562:

Biological target: Gp7-MyH7-1526-1571 (bacteriophage φ29 | human)
Experiment: crystal structure

stoichiometry N: 2
Substance: Gp7-MyH7-1526-1571 (domain or fragment)
